# According to patent US20220251546:
# Target: T1, IFIT5 (rhIFIT5) (Homo sapiens) (UniProt Q13325)
# T1 sequence: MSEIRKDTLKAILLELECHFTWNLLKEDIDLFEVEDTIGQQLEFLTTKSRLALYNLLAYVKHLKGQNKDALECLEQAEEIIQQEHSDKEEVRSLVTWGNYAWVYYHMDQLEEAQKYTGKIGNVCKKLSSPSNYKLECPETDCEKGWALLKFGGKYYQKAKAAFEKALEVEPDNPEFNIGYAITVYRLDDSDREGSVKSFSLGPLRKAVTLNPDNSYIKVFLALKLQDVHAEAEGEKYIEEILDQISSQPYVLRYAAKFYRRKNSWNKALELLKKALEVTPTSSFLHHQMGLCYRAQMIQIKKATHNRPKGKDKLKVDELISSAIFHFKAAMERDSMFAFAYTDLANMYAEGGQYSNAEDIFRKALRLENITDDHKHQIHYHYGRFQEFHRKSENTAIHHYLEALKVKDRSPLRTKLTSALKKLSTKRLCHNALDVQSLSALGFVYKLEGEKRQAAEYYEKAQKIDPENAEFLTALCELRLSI
# Experiment: pulldown
# Conditions: 5'-triphosphate; approx. 10-fold enrichment vs 16S rRNA, over 20-fold vs 23S rRNA by RT-qPCR
substance,measurement,value
Listeria Lmo2210 mRNA and LhrC sRNA,binding signal,10 fold
